Data from doi:10.1101/2024.09.18.613619 (bioRxiv, 2024).

Target: T1, Rpn8 (Saccharomyces cerevisiae proteasome lid subunit) (S. cerevisiae, UniProt Q08723 1-338)
T1 sequence (looked up): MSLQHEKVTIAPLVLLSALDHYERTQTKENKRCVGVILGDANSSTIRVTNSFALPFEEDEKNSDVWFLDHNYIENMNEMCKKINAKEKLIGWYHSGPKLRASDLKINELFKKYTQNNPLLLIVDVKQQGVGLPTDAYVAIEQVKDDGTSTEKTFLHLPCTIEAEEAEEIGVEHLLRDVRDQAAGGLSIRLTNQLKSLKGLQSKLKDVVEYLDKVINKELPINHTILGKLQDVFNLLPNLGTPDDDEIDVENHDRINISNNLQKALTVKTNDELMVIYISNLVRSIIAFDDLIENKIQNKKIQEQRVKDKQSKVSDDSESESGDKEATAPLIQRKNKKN
Assay: two-hybrid

β-galactosidase activity relative to the GlRpn8-GlRpn11 pair: ~2 fold
B1: Rpn11 (Saccharomyces cerevisiae proteasome lid subunit) (natural protein, S. cerevisiae, UniProt P43588 1-306, looked up)
chain: MERLQRLMMNSKVGSADTGRDDTKETVYISSIALLKMLKHGRAGVPMEVMGLMLGEFVDDYTVNVVDVFAMPQSGTGVSVEAVDDVFQAKMMDMLKQTGRDQMVVGWYHSHPGFGCWLSSVDVNTQKSFEQLNSRAVAVVVDPIQSVKGKVVIDAFRLIDTGALINNLEPRQTTSNTGLLNKANIQALIHGLNRHYYSLNIDYHKTAKETKMLMNLHKEQWQSGLKMYDYEEKEESNLAATKSMVKIAEQYSKRIEEEKELTEEELKTRYVGRQDPKKHLSETADETLENNIVSVLTAGVNSVAIK
